Assays:
[1] = biological target: T1, MMRN2^EMI-CC (EMI and coiled-coil domains of human MMRN2, His tag) (human, UniProt Q9H8L6 23-820); assay: far western blot, reduced; HEK293T lysates of His-tagged MMRN2 constructs probed with CLEC14A-ECD-Fc
T1 construct: domain: EMI and coiled-coil; HEK293T lysate, blotted under reducing conditions; not shown: C-terminal BirA and His tags of vector pHL-Avitag3
T1 sequence (looked up): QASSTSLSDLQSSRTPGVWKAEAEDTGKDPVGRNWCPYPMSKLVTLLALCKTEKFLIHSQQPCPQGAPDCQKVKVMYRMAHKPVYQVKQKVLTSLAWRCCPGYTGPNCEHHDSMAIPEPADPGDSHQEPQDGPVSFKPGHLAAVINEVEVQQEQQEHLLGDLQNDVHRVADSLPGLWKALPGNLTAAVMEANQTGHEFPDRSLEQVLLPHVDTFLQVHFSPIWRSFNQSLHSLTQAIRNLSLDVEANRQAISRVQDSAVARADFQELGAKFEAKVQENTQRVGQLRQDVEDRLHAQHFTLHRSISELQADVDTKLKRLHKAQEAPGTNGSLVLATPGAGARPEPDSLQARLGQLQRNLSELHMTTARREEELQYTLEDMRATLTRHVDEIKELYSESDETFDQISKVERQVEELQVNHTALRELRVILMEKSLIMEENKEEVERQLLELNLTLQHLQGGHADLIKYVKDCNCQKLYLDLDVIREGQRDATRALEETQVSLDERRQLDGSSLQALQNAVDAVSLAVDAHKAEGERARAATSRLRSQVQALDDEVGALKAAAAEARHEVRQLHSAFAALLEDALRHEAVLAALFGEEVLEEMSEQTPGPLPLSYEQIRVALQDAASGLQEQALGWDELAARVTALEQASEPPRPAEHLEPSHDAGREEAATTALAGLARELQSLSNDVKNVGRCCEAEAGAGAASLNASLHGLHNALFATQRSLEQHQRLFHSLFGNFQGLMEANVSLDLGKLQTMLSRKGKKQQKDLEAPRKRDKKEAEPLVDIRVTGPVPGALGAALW
Text: (§1) FIG. 2. […] (A) Diagrams of MMRN2 truncation mutants, showing the elastin microfibril interface (EMI) domain, coiled-coil (CC) domain and complement related C1q domain. The minimal CLEC14A binding fragment is highlighted in black. (B,C) HEK293T were transfected with truncation mutants. Lysates were far western blotted under reduced conditions with CLEC14A extracellular domain fused to an Fc tag (CLEC14A-ECD-Fc) and western blotted by use of His tag antibodies. (B) The smallest binding fragment was identified as MMRN2⁴⁸⁷⁻⁸²⁰, MMRN2^FL fails to bind CLEC14A-ECD-Fc. (C) The smallest MMRN2 fragment binding CLEC14A is MMRN2⁵³⁰⁻⁶²⁴. (D) MMRN2⁴⁹⁵⁻⁶⁷⁴ and MMRN2⁴⁹⁵⁻⁶⁰³ bind to streptavidin under reducing conditions after biotinylation. (E) Flow cytometry histograms of HEK293T transfected with GFP tagged CTLD group 14 family members and stained with biotinylated MMRN2⁴⁹⁵⁻⁶⁷⁴ (grey line), confirming binding to CLEC14A and CD93 but not thrombomodulin. Streptavidin-PE was used as a control for background binding (grey shaded).
(§2) Whole cell protein lysates were made by incubating with lysis buffer (1% (v/v) NP40, 10 mM Tris pH7.5, 150 mM NaCl and 1 mM EDTA) and pelleting insoluble material. […] The epitope tag of each probed protein was detected with secondary antibody incubation (anti-His or anti-Fc HRP conjugate) and then tertiary anti-mouse HRP for the case of anti-His.

[2] = biological target: T2, MMRN2^CC-C1q (coiled-coil and C1q domains of human MMRN2, His tag) (human, UniProt Q9H8L6 133-949); assay: as above
T2 construct: domain: coiled-coil and C1q; HEK293T lysate, blotted under reducing conditions; not shown: C-terminal BirA and His tags of vector pHL-Avitag3
T2 sequence (looked up): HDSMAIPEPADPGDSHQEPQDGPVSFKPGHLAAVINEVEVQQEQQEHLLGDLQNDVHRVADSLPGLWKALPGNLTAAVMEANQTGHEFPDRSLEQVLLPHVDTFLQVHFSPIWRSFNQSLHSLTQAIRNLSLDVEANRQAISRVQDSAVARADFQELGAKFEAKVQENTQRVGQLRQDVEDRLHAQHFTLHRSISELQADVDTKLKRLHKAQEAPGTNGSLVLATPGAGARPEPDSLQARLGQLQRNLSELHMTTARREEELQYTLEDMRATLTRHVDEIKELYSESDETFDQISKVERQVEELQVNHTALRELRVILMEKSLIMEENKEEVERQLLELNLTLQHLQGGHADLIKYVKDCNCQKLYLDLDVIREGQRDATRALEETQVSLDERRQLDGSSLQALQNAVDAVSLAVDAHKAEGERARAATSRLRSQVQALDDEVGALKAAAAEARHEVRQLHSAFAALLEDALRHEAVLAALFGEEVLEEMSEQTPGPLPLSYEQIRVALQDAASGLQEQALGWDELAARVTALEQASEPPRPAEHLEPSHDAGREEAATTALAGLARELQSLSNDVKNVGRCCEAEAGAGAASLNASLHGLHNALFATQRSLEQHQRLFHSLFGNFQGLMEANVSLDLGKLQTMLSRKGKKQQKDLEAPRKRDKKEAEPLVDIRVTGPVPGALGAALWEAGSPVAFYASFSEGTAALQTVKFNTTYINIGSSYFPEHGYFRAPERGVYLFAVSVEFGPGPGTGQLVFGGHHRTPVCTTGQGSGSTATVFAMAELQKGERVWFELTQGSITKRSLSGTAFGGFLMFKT
Text: as §1, §2

B1: CLEC14A-ECD-Fc (human CLEC14A extracellular domain fused to an Fc tag) (Fc fusion)
chain: EHPTADRAGCSASGACYSLHHATMKRQAAEEACILRGGALSTVRAGAELRAVLALLRAGPGPGGGSKDLLFWVALERRRSHCTLENEPLRGFSWLSSDPGGLESDTLQWVEEPQRSCTARRCAVLQATGGVEPAGWKEMRCHLRANGYLCKYQFEVLCPAPRPGAASNLSYRAPFQLHSAALDFSPPGTEVSALCRGQLPISVTCIADEIGARWDKLSGDVLCPCPGRYLRAGKCAELPNCLDDLGGFACECATGFELGKDGRSCVTSGEGQPTLGGTGVPTRRPPATATSPVPQRTWPIRVDEKLGETPLVPEQDNSVTSIPEIPRWGSQSTMSTLQMSLQAESKATITPSGSVISKFNSTTSSATPQAFDSSS
notes: Expressed in HEK293T cells; also called hCLEC14A-ECD-Fc; C14A-Fc; not shown: human IgG Fc tag
- binding result [1]: binds
- binding result [2]: binds
